T1: Lrp (Dickeya oryzae EC1, UniProt A0AB39ITC9 1-164)
T1 sequence: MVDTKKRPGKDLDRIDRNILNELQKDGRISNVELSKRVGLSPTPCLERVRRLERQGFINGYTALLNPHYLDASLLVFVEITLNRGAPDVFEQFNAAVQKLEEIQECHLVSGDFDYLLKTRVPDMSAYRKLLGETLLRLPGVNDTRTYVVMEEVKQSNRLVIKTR

B1: PzmsA(24)PM (dsDNA)
DNA 1: GTGTGAAAAGAGTGAGAGACCACG
DNA 2: CGTGGTCTCTCACTCTTTTCACAC
B2: PzmsA(24) (dsDNA)
DNA 1: GTGTAATTATGGGCGTGCTCCGGG
DNA 2: CCCGGAGCACGCCCATAATTACAC

What was measured:
Lrp [1] = target: T1, Lrp; assay: EMSA; conditions: protein: recombinant; tags: GST tag removed with PreScission protease (pGEX-6P-1, BamHI/EcoRI-site primers; N-terminal vector residues may remain); chain copies: 2
Lrp [2] = target: T1, Lrp; assay: EMSA; 1 uM Lrp, 20 fmol probe; conditions: protein: recombinant; tags: GST tag removed with PreScission protease (pGEX-6P-1, BamHI/EcoRI-site primers; N-terminal vector residues may remain); chain copies: 2; label: biotin

Binder | binding result (Lrp [1]) | binding result (Lrp [2])
B1 | no binding | 
B2 |  | binds

From PMC12145271, “A Lrp/AsnC Family Transcriptional Regulator Lrp Is Essential for the Pathogenicity of Dickeya oryzae”
